T1: human FcgRIIa type R extracellular domain (human, UniProt P12318 34-217)
T1 construct: extracellular domain; also called hFcgRIIaR
T1 sequence (looked up): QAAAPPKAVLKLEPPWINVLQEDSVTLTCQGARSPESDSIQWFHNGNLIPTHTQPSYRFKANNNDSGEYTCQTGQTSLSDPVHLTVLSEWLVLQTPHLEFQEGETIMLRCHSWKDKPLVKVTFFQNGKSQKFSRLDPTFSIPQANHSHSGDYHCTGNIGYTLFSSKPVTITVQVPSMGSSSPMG

T2: human FcgRIIa type H extracellular domain (human, UniProt P12318 34-217)
T2 construct: extracellular domain; also called hFcgRIIaH
T2 sequence (looked up): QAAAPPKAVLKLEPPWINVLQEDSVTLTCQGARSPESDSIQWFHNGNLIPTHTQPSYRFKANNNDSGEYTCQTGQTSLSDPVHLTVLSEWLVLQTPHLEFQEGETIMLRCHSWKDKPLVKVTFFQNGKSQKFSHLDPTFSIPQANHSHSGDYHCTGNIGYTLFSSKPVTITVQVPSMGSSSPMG

T3: human FcgRIIb extracellular domain (human, UniProt P31994 43-217)
T3 construct: extracellular domain; also called hFcgRIIb
T3 sequence (looked up): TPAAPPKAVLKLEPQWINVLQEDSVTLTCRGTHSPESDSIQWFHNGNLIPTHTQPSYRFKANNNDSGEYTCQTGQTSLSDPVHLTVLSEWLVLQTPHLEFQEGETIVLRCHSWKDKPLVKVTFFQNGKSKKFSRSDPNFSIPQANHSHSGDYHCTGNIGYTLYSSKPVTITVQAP


Assays:
[1] = biological target: T4, human FcgRIIIa F158 extracellular domain (human, UniProt P08637 17-208); assay: SPR 25C
T4 construct: extracellular domain; also called hFcgRIIIaF
T4 sequence (P08637 17-208): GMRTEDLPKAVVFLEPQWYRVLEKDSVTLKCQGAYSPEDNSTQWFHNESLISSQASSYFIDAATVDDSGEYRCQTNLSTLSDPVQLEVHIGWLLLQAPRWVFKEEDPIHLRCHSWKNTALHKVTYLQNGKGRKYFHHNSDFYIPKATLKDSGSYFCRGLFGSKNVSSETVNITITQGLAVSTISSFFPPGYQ

[2] = biological target: T5, human FcgRIa extracellular domain (human, UniProt P12314 16-292); assay: SPR 25C
T5 construct: extracellular domain; also called hFcgRIa
T5 sequence (P12314 16-292): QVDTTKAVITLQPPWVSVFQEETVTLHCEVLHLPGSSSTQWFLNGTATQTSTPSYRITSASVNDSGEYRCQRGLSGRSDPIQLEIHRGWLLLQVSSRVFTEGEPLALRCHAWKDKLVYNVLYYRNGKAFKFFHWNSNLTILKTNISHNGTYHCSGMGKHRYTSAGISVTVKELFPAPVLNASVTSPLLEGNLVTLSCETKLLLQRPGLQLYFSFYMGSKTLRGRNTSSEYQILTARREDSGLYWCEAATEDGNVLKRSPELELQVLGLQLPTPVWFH

[3] = biological target: T6, human FcgRIIIa V158 extracellular domain (human, UniProt P08637 17-208); assay: SPR 25C
T6 construct: extracellular domain; also called hFcgRIIIaV
T6 sequence (P08637 17-208 F176V): as the sequence (P08637 17-208) above, with F160V counted along it

[4] = biological target: T1, human FcgRIIa type R extracellular …; assay: SPR 25C
[5] = biological target: T2, human FcgRIIa type H extracellular …; assay: SPR 25C
[6] = biological target: T3, human FcgRIIb extracellular domain; assay: SPR 25C
[7] = biological target: human FcRn (human, UniProt P55899 24-290; P61769 21-119); assay: SPR 25C pH 6.0, steady state
Sequence of human FcRn (P55899 24-290 limits assumed, chain 1 of 2): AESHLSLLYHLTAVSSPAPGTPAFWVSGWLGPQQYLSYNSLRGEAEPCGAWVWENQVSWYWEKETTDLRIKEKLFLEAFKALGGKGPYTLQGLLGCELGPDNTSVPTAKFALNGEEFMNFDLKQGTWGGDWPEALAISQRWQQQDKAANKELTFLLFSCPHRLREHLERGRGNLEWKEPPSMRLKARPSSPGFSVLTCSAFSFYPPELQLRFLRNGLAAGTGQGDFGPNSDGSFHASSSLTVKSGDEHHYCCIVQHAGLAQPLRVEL
Sequence of human FcRn (P61769 21-119 limits assumed, chain 2 of 2): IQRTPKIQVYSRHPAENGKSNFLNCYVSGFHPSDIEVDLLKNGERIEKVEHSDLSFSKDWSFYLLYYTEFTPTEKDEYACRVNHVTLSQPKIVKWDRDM
Procedure, shortened: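 Antibody (~400 RU) captured on anti-Fab-lambda sensor chip, human FcRn injected as analyte.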

Row | Binder | binding per 1RU antibody [1] | relative binding (A375-G1T3/B167-Lamlib=1) [1] | binding per 1RU antibody [2] | relative binding (A375-G1T3/B167-Lamlib=1) [2] | binding per 1RU antibody [3] | relative binding (A375-G1T3/B167-Lamlib=1) [3] | binding per 1RU antibody [4] | relative binding (A375-G1T3/B167-Lamlib=1) [4] | binding per 1RU antibody [5] | relative binding (A375-G1T3/B167-Lamlib=1) [5] | binding per 1RU antibody [6] | relative binding (A375-G1T3/B167-Lamlib=1) [6] | Kd [7]
1 | A375-SCF043a/B167-Lamlib (antibody, human IgG1, lambda) heavy: EVQLVESGGGLVKPGGSLRLSCAASGFTFSTFTMNWVRQAPGKGLEWVSSISSKSTYIEYADSFKVRFTISRDNAKNSLYLQMNSLRAEDTAVYYCARYGAKNFLNWVFDYWGQGTLVTVSSASTKGPSVFPLAPSSKSTSGGTAALGCLVKDYFPEPVTVSWNSGALTSGVHTFPAVLQSSGLYSLSSVVTVPSSSLGTQTYICNVNHKPSNTKVDKRVEPKSCDKTHTCPPCPAPELLNGPSVFLFPPKPKDTLMISRTPEVTCVVVDVSDEDPEVKFNWYVDGVEVHNAKTKPREEQYNSTYRVVSVLTVLHQDWLNGKEYKCKVSNKALPKPIEKTISKAKGQRREPQVYTLPPSREEMTKNQVSLTCLVKGFYPSDIAVEWESNGQPENNYKTTPPVLDSDGSFFLYSKLTVKKSRWQQGNVFSCSVMHEALHNHYTQKSLSLSP light: QSALTQPPSASGSPGQTVTISCTGTRYDVGYYEYVSWYQQHPGKAPKLMIYETSKRLSGVPDRFSGSKSGNTASLTVSGLQAEDEADYYCSSYRYEHQVSFGGGTKLTVLGQPKAAPSVTLFPPSSEELQANKATLVCLISDFYPGAVTVAWKADSSPVKAGVETTTPSKQSNNKYAASSYLSLTPEQWKSHRSYSCQVTHEGSTVEKTVAPTECS | 0.0011 RU | 0.05 | 0.0429 RU | 0.53 | 0.0025 RU | 0.04 | 0.0361 RU | 0.78 | 0.0552 RU | 0.97 | 0.0419 RU | 3.82 | 1180 nM
2 | A375-SCF043aPh/B167-Lamlib (antibody, human IgG1, lambda) heavy: EVQLVESGGGLVKPGGSLRLSCAASGFTFSTFTMNWVRQAPGKGLEWVSSISSKSTYIEYADSFKVRFTISRDNAKNSLYLQMNSLRAEDTAVYYCARYGAKNFLNWVFDYWGQGTLVTVSSASTKGPSVFPLAPSSKSTSGGTAALGCLVKDYFPEPVTVSWNSGALTSGVHTFPAVLQSSGLYSLSSVVTVPSSSLGTQTYICNVNHKPSNTKVDKRVEPKSCDKTHTCPPCPAPELWNGPSVFLFPPKPKDTLMISRTPEVTCVVVDVSDEDPEVKFNWYVDGVEVHNAKTKPREEQYNSTYRVVSVLTVLHQDWLNGKEYKCKVSNKALPKPIEKTISKAKGQRREPQVYTLPPSREEMTKNQVSLTCLVKGFYPSDIAVEWESNGQPENNYKTTPPVLDSDGSFFLYSKLTVKKSRWQQGNVFSCSVMHEALHNHYTQKSLSLSP light: QSALTQPPSASGSPGQTVTISCTGTRYDVGYYEYVSWYQQHPGKAPKLMIYETSKRLSGVPDRFSGSKSGNTASLTVSGLQAEDEADYYCSSYRYEHQVSFGGGTKLTVLGQPKAAPSVTLFPPSSEELQANKATLVCLISDFYPGAVTVAWKADSSPVKAGVETTTPSKQSNNKYAASSYLSLTPEQWKSHRSYSCQVTHEGSTVEKTVAPTECS | 0.0001 RU | 0 | 0.0011 RU | 0.01 | 0.0001 RU | 0 | 0.0349 RU | 0.75 | 0.0349 RU | 0.62 | 0.0339 RU | 3.1 | 1210 nM
3 | A375-SCF056aPh/B167-Lamlib (antibody, human IgG1, lambda, copies: 2 + 2) heavy: EVQLVESGGGLVKPGGSLRLSCAASGFTFSTFTMNWVRQAPGKGLEWVSSISSKSTYIEYADSFKVRFTISRDNAKNSLYLQMNSLRAEDTAVYYCARYGAKNFLNWVFDYWGQGTLVTVSSASTKGPSVFPLAPSSKSTSGGTAALGCLVKDYFPEPVTVSWNSGALTSGVHTFPAVLQSSGLYSLSSVVTVPSSSLGTQTYICNVNHKPSNTKVDKRVEPKSCDKTHTCPPCPAPELWNGPSVFLFPPKPKDTLMISRTPEVTCVVVDVSDEDPEVKFNWYVDGVEVHNAKTKPREEQYNSTYRVVSVLTVLHRDWLNGKEYKCKVSNKALPKPIEKTISKAKGQPREPQVYTLPPSREEMTKNQVSLTCLVKGFYPSDIAVEWESNGQPENNYKTTPPVLDSDGSFFLYSKLTVDKSRWQQGNVFSCSVMHEALHNHYTQKSLSLSP light: QSALTQPPSASGSPGQTVTISCTGTRYDVGYYEYVSWYQQHPGKAPKLMIYETSKRLSGVPDRFSGSKSGNTASLTVSGLQAEDEADYYCSSYRYEHQVSFGGGTKLTVLGQPKAAPSVTLFPPSSEELQANKATLVCLISDFYPGAVTVAWKADSSPVKAGVETTTPSKQSNNKYAASSYLSLTPEQWKSHRSYSCQVTHEGSTVEKTVAPTECS | 0.001 RU | 0.05 | 0.0019 RU | 0.02 | 0.001 RU | 0.01 | 0.0299 RU | 0.64 | 0.0314 RU | 0.55 | 0.0292 RU | 2.67 | 1000 nM
4 | A375-SCF057a/B167-Lamlib (antibody, human IgG1, lambda) heavy: EVQLVESGGGLVKPGGSLRLSCAASGFTFSTFTMNWVRQAPGKGLEWVSSISSKSTYIEYADSFKVRFTISRDNAKNSLYLQMNSLRAEDTAVYYCARYGAKNFLNWVFDYWGQGTLVTVSSASTKGPSVFPLAPSSKSTSGGTAALGCLVKDYFPEPVTVSWNSGALTSGVHTFPAVLQSSGLYSLSSVVTVPSSSLGTQTYICNVNHKPSNTKVDKRVEPKSCDKTHTCPPCPAPELLNGPSVFLFPPKPKDTLMISRTPEVTCVVVDVSDEDPEVKFNWYVDGVEVHNAKTKPREEQYNSTYRVVSVLTVLHRDWLNGKEYKCKVSNKALPKPIEKTISKAKGQRREPQVYTLPPSREEMTKNQVSLTCLVKGFYPSDIAVEWESNGQPENNYKTTPPVLDSDGSFFLYSKLTVDKSRWQQGNVFSCSVMHEALHNHYTQKSLSLSP light: QSALTQPPSASGSPGQTVTISCTGTRYDVGYYEYVSWYQQHPGKAPKLMIYETSKRLSGVPDRFSGSKSGNTASLTVSGLQAEDEADYYCSSYRYEHQVSFGGGTKLTVLGQPKAAPSVTLFPPSSEELQANKATLVCLISDFYPGAVTVAWKADSSPVKAGVETTTPSKQSNNKYAASSYLSLTPEQWKSHRSYSCQVTHEGSTVEKTVAPTECS | 0.0013 RU | 0.06 | 0.0405 RU | 0.5 | 0.0025 RU | 0.04 | 0.0367 RU | 0.79 | 0.0525 RU | 0.93 | 0.0412 RU | 3.76 | 928 nM
5 | A375-SCF056a/B167-Lamlib (antibody, human IgG1, lambda, copies: 2 + 2) heavy: EVQLVESGGGLVKPGGSLRLSCAASGFTFSTFTMNWVRQAPGKGLEWVSSISSKSTYIEYADSFKVRFTISRDNAKNSLYLQMNSLRAEDTAVYYCARYGAKNFLNWVFDYWGQGTLVTVSSASTKGPSVFPLAPSSKSTSGGTAALGCLVKDYFPEPVTVSWNSGALTSGVHTFPAVLQSSGLYSLSSVVTVPSSSLGTQTYICNVNHKPSNTKVDKRVEPKSCDKTHTCPPCPAPELLNGPSVFLFPPKPKDTLMISRTPEVTCVVVDVSDEDPEVKFNWYVDGVEVHNAKTKPREEQYNSTYRVVSVLTVLHRDWLNGKEYKCKVSNKALPKPIEKTISKAKGQPREPQVYTLPPSREEMTKNQVSLTCLVKGFYPSDIAVEWESNGQPENNYKTTPPVLDSDGSFFLYSKLTVDKSRWQQGNVFSCSVMHEALHNHYTQKSLSLSP light: QSALTQPPSASGSPGQTVTISCTGTRYDVGYYEYVSWYQQHPGKAPKLMIYETSKRLSGVPDRFSGSKSGNTASLTVSGLQAEDEADYYCSSYRYEHQVSFGGGTKLTVLGQPKAAPSVTLFPPSSEELQANKATLVCLISDFYPGAVTVAWKADSSPVKAGVETTTPSKQSNNKYAASSYLSLTPEQWKSHRSYSCQVTHEGSTVEKTVAPTECS | 0.0011 RU | 0.05 | 0.0395 RU | 0.49 | 0.0023 RU | 0.03 | 0.0331 RU | 0.71 | 0.0529 RU | 0.93 | 0.0399 RU | 3.64 | 956 nM

Reference: patent US20230272099A1 (Chugai, published 2023)
